Laboratory results taken from US5580854A, “Substrate-related peptidyl-aldehyde inhibitors of the proteolytic activity of the multicatalytic proteinase complex” (Mount Sinai School of Medicine of The City University of …, priority 1994, dated 1996).

Experiments:
Test in all cases: Kinetic parameters for degradation of synthetic substrates by the BrAAP component
Format in all cases: biochemical, bovine
[1] = substrate: CC(C)C[C@H](NC(=O)[C@H](C)NC(=O)CNC(=O)[C@@H]1CCCN1C(=O)OCc1ccccc1)C(=O)N[C@@H](C)C(=O)Nc1ccc(C(=O)O)cc1; details: other: [S] 1.6-8.0; mean of 2 determinations; from plots of 1/v vs 1/s
Excerpt: (§1) A coupled two step reaction in the presence of excess aminopeptidase N (AN) was used for the determination of the BrAAP and SNAAP activities as described previously (Orlowski et al., Biochemistry 32:1563-1572 (1993)). Aminopeptidase N was purified from hog kidneys as described by Pfleiderer, Meth. Enzymol. 19:514-521 (1970) and freed from the contaminating metalloendopeptidase (EC 3.4.24.11) as previously described (Almenoff & Orlowski, Biochemistry 22:590-599 (1983)).
(§2) The flexibility of the amino acid residue in the P4 position of the inhibitors of the present invention is based on results of substrate specificity studies of the BrAAP component. Activities towards various analogs of the prototypic BrAAP substrate Cbz-Gly-Pro-Ala-Leu-Gly-pAB were determined using the coupled two-step reaction carried out in the presence of AN, as described in Example 4. The BrAAP substrates tested included the following:
(§3) Data represent mean values for 2 separate determinations. For substrates
(§4) with MichaelisMenten kinetics, Km and kcat were determined from
(§5) the regression line fitted to plots of 1/v vs 1/s. Kcat was estimate
(§6) assuming a molecular mabs of 700 KDa and assuming one active site per
(§7) molecule. […] The apparent Km for
(§8) this substrate is taken as the substrate concentration at half of the
(§9) Vmax observed. kcat for this substrate was calculated assuming
(§10) Vmax of 300 U/mg and assuming one active site per molecule of MPC.

[2] = substrate: CC(C)C[C@H](NC(=O)[C@H](C)NC(=O)CNC(=O)CNC(=O)OCc1ccccc1)C(=O)N[C@@H](C)C(=O)Nc1ccc(C(=O)O)cc1; details: other: [S] 0.8-4.8; sigmoidal kinetics; substrate concentration at half of the Vmax observed
Excerpt: as §1, §2, §3, §4, §5, §6, §7, §8, §9, §10

[3] = substrate: CC(C)C[C@H](NC(=O)OCc1ccccc1)C(=O)NCC(=O)N[C@@H](C)C(=O)N[C@@H](CC(C)C)C(=O)N[C@@H](C)C(=O)Nc1ccc(C(=O)O)cc1; details: other: [S] 1.6-8.0; mean of 2 determinations; from plots of 1/v vs 1/s
Excerpt: as §1, §2, §3, §4, §5, §6, §7, §8, §9, §10

B1: BRAAP component of the MPC (Bos taurus) (protein)
chain 1: TTTLAFKFRHGVIVAADSRATAGAYIASQTVKKVIEINPYLLGTMAGGAADCSFWERLLARQCRIYELRNKERISVAAASKLLANMVYQYKGMGLSMGTMICGWDKRGPGLYYVDSEGNRISGATFSVGSGSVYAYGVMDRGYSYDLEVEEAYDLARRAIYQATYRDAYSGGSVSLYHVREDGWIRVSSDNVADLHDKYSGSTH
chain 2: TTIMAVQFDGGVVLGADSRTTTGSYIANRVTDKLTPIHDRIFCCRSGSAADTQAVADAVTYQLGFHSIELNEPPLVHTAASLFKEMCYRYREDLMAGIIIAGWDPQEGGQVYSVPMGGMMVRQPFAIGGSGSSYIYGYVDATYREGMTKEECLQFTANALALAMERDGSSGGVIRLAAIAEPGVERQVLLGDQIPKFTIATLPPL
chain 3: TTIAGVVYKDGIVLGADTRATEGMVVADKNCSKIHFISPNIYCCGAGTAADTDMTTQLISSNLELHSLSTGRLPRVVTANRMLKQMLFRYQGYIGAALVLGGVDVTGPHLYSIYPHGSTDKLPYVTMGSGSLAAMAVFEDKFRPDMEEEEAKKLVSEAIAAGIFNDLGSGSNIDLCVISKSKLDFLRPYSVPNKKGTRFGRYRCEKGTNAVLTEKVTTLEIEVLEETVQTMDTS
notes: The MPC was isolated from frozen bovine pituitaries; tissue PelFreeze, Inc. (Rogers, Ark.) (supplier of the tissue; the enzyme was purified in house); host or cells: bovine pituitaries
Km [1]: 8.7 mM | kcat [1]: 8.4 s⁻¹ | kcat/Km [1]: 960 M⁻¹ s⁻¹ | Km [2]: 2.5 mM | kcat [2]: 58 s⁻¹ | kcat/Km [2]: 23,300 s^-1 M^-1 | Km [3]: 30 mM | kcat [3]: 24 s⁻¹ | kcat/Km [3]: 820 M⁻¹ s⁻¹
